Results from paper PMC3906316 (Journal of Medicinal Chemistry, 2013).

Biological target: bromodomain of CREB (cyclic-AMP response element binding) binding protein (UniProt Q92793-1)
Assay: AlphaScreen or HTRF
Details: both partners purified

Sequence of bromodomain of CREB (cyclic-AMP response element binding) binding protein (Q92793 1081-1197): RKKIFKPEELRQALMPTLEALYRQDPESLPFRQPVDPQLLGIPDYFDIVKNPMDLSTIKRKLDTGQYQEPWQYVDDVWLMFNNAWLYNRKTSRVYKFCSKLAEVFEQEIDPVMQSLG

ALREIRRYQKSTELLIRKLK (K(Ac) at peptide position 10 (H3K56); C-terminal K(Biotin)) [H3K56(Ac) peptide]: binds.
